Results published in patent US20220125891.

Tested on: T1, FLAG-tagged Regnase-1 AA mutant (S435A/S439A) from Regnase-1-deficient MEFs
T1 sequence: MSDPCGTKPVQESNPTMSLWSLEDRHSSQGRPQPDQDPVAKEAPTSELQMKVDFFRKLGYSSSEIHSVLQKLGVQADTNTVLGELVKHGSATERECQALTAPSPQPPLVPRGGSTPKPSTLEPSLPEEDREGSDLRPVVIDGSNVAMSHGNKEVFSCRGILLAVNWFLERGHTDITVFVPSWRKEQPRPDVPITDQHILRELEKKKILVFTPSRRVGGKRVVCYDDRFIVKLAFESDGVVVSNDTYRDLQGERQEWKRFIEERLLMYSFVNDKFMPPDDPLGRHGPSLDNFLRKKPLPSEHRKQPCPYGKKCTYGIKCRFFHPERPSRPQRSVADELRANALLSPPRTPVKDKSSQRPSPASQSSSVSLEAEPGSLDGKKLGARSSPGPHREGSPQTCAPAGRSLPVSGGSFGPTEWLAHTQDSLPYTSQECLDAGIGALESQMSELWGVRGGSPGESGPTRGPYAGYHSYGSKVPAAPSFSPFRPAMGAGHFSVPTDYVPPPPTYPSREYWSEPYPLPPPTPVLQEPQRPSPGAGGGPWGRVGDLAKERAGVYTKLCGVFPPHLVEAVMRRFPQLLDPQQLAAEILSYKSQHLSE

Substance | in vitro phosphorylation (mobility shift by immunoblotting, 32P autoradiography)
GST-tagged IKKi (Thermo Fisher Scientific) | Phosphorylation of recombinant Regnase-1 by recombinant TBK1 and/or IKKi under in vitro conditions was detected
GST-tagged TBK1 (Sigma) | Phosphorylation of recombinant Regnase-1 by recombinant TBK1 and/or IKKi under in vitro conditions was detected
